One molecule from US6376217 can be followed below.

The target of this experiment is T1, human CD5 cell differentiation marker (human, UniProt P06127 25-495).
T1 sequence: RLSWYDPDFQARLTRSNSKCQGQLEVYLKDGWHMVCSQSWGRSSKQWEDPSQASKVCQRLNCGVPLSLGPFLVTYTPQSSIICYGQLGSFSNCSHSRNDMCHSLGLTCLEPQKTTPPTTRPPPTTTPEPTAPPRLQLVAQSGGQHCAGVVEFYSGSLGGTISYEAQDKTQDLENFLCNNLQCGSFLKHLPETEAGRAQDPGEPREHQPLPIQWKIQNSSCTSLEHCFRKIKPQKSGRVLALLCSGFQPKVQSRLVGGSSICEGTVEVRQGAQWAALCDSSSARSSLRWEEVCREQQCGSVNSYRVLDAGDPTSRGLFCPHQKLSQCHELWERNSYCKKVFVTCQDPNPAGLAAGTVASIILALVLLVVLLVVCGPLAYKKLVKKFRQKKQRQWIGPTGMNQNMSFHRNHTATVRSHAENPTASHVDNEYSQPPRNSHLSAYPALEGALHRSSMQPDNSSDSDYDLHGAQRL
The experiment in a line: cell-based or functional assay.

B1: he3Fab-rGelA50(C44) (other)
heavy: EIQLVQSGGGLVKPGGSVRISCAASGYTFTNYGMNWVRQAPGKGLEWMGWINTHTGEPTYADSFKGRFTFSLDDSKNTAYLQINSLRAEDTAVYFCTRRGYDWYFDVWGQGTTVTVSS
light: DIQMTQSPSSLSASVGDRVTITCRASQDINSYLSWFQQKPGKAPKTLIYRANRLESGVPSRFSGSGSGTDYTLTISSLQYEDFGIYYCQQYDESPWTFGGGTKLEIK
chain: GLDTVSFSTKGATYITYVNFLNELRVKLKPEGNSHGIPLLRKKCDDPGKAFVLVALSNDNGQLAEIAIDVTSVYVVGYQVRNRSYFFKDAPDAAYEGLFKNTIKTRLHFGGSYPSLEGEKAYRETTDLGIEPLRIGIKKLDENAIDNYKPTEIASSLLVVIQMVSEAARFTFIENQIRNNFQQRIRPANNTISLENKWGKLSFQIRTSGANGMFSEAVELERANGKKYYVTAVDQVKPKIALLKFVDKDPK
Turning to B1, the “IC50 (pMT), whole cell cytotoxicity, CEM Cells” value worked out at 173 pMT.
